T1: recombinant human PDGF-CC core domain protein (activated PDGF-CC, growth factor domain) (human, UniProt Q9NRA1 230-345)
T1 chain: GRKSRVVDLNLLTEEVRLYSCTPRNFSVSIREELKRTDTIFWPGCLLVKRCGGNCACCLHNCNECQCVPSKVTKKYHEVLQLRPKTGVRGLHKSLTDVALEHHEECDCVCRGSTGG


Target: T1, recombinant human PDGF-CC core domain …
Test: SPR

koff [s⁻¹]	Binder
0.0015	monoclonal anti-PDGF-CC antibody 6B3 (antibody, V domains shown) VH: QVQLQQSGVEVARPGASVKLSCKASGYTFRSYGITWVRQRTGQGLEWIGEIYPRSGKTYYNEKFKGKATLTADTSSSTVYMELRSLTSEDSAVYFCAREGYGYDGGYFDYWGQGTTLTVSS VL: DIVMTQSPSSLAMSVGQKVTMSCKSSQSLLNSRNQKNYLAWYQQKPGQSPKLLVYFASTRESGVPDRFTGSGSGTDFTLTISSVQAEDLAVYYCQQHYSTPLTFGAGTKLELK
0.00058	monoclonal anti-PDGF-CC antibody 11F5 (antibody, V domains shown) VH: QVQLQQSGAELARPGASVKLSCKASGYIFISYGISWVKQRTGQGLEWIGEIYPRSGKTYYNEKFKDKAALTADKSSSIAYMELRSLTSEDSAVYFCAREGYGYDGGYFDYWGQGTILTVSS VL: DIVMTQSPSSLAMSVGQKVAVSCKSSQSLLNSSNQKNYLAWYQQKPGQSPKLLVYFASTRDSGVPDRFTGSGSGTDFTLTISSVQAEDLAVYYCQQHYSTPLTFGAGTKLELK
0.0016	monoclonal anti-PDGF-CC antibody 19C7 (antibody, V domains shown) VH: QVQLQQSGVEVARPGASVKLSCKASGYTFRSYGITWVRQRTGQGLEWIGEIYPRSGKTYYNEKFKGKATLTADTSSSTVYMELRSLTSEDSAVYFCAREGYGYDGGYFDYWGQGTTLTVSS VL: DIVMTQSPSSLAMSVGQKVTMSCKSSQSLLNSRNQKNYLAWYQQKPGQSPKLLVYFASTRESGVPDRFTGSGSGTDFTLTISSVQAEDLAVYYCQQHYSTPLTFGAGTKLELK

From PMC6063412 (2018)
